In the supplement of paper PMC9170038:

Tested on: K4 kissing-loop RNA reporter
Assay: apparent KD of K4 kissing-loop reporter; higher = weaker reporter binding
Settings: Eterna round: R107
Method: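 RNA-MaP round R107: designed RNA switches with theophylline, tryptophan, arginine or FMN aptamers are transcribed on-chip within common flanks. They are titrated with a labelled K4 kissing-loop RNA reporter in RNA-MaP buffer (100 mM Tris pH 7.5, 80 mM KCl, 4 mM MgCl2), without ligand or with the indicated ligand. Median apparent KD per design.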

[1] = input ligand: theophylline 20 uM
[2] = input ligand: tryptophan 2.4 mM
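Further: bound reporter read as fluorescence of individual clusters on recovered sequencing chips by microscopy, with normalized cluster intensities fitted with a binding model.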

Sequence	apparent KD of K4 kissing-loop reporter (input ligand: FMN 200 uM)	apparent KD of K4 kissing-loop reporter (input ligand: arginine 13.2 mM)	apparent KD of K4 kissing-loop reporter (input ligand: none)	apparent KD of K4 kissing-loop reporter [1]	apparent KD of K4 kissing-loop reporter [2]
ACUGGGUUGACGAAAGUCAACAAAAGAGAAGGAGCGCACGAAAGUGCAGGUAGGUCGCUCAUUCCAGUGAUGUUGGAUCACCAGA [#SwitchBubble 18 #K4Late]	242 nM	366 nM	453 nM	279 nM	199 nM
ACUUGAGCACAAAGCACACCAAGCAGUAGGUAGGAUAUCCGGCUUAGGAGAAGGACCAUGCAGUGAUGUUGCAUGCUCCUCCAUG [Onraordi]	267 nM	94.7 nM	101 nM	102 nM	93 nM
AGAAACUUGUAUGUCGAGUGUGCGCGCGAUACCAGCCAAAUGGAUGGCCCUUGGCAGCGCUGCGAGUGAUGUUCGCCCGCUUGAC [#18 K4 Theophylline A Exclusion]	210 nM	244 nM	203 nM	192 nM	174 nM
AGAACUGUCUGAGAUACCAGCUAAGGAGUGAUGUUCCUAGCUCCACGAAAGUGGAGCCAUAGCCCUUGGCAGCUCAGACAGUUCA [Omei KL Theo B SS A v6]	866 nM	588 nM	1050 nM	584 nM	747 nM
AGACCACAAAGUGGUCAGUGUUCGCGGCAGCGAGGACCGGUACGGCCGCCACUCGCGAGUGAUGUUCGCGAGAGCCGCGAACACA [Omei KL Tryp A Exc A v8]	82.7 nM	80.9 nM	82.6 nM	93.8 nM	99.6 nM
AGACCACAAAGUGGUCAGUGUUCGCUGCAGCGAGGACCGGUACGGCCGCCACUCGCGAGUGAUGUUCGCGAGCGCAGCGAACACA [Omei KL Tryp A Exc A v5]	95.9 nM	68.1 nM	92.6 nM	75.6 nM	114 nM
AGACGCCAGUCGGCCGCCACUCACAGCAGUGAUGUUGCUGAAAAUCUAGAAGAGUGAUGUUCUUAGAGGACCGGGACUCCAGUCG [Same State Tryptophan B GF 6]	162 nM	153 nM	169 nM	141 nM	172 nM
AGACUACCACACUGUCAAUAGACAGUGAGCUAGGAUAUGCUGAUAAGCAGAAGGAGUGAUGUUCCUUGGUAGUCAAUAAAAUAAU [FmnAX 13 G29+U67]	366 nM	271 nM	285 nM	319 nM	280 nM
AGACUACCACACUGUCAAUAGACAGUGUACUAGGAUAUGCUGAUAAGCAGAAGGAGUGAUGUUCCGAGGUAGUCAAUAAAAUAAU [FmnAX 13 U28+G66]	326 nM	258 nM	253 nM	330 nM	242 nM
AGAGUUAUGCGAGGAUAUGCGGUUAGUACUCAAAGAGUACUAACGCAGAGUGAUGUUCUGUGAAACACAGAAGGCGCAUAACUCA [Omei KL FMN B SS B v1]	854 nM	160 nM	475 nM	448 nM	441 nM
AGAUCUGUAACAGAUACCAGAGGACGAUGAUCGGAUAGUGAUGUUAUCUGUCAGUCGUCGCUCCCUUGGCAGCUGUUACAGAUCA [Omei KL Theo B SS B v1]	176 nM	147 nM	174 nM	135 nM	157 nM
AGAUUCGACACGGCCGCCACUCGUGGUGGAUUACCGAGUGUCGAAGUUGAGUGAUGUUCAAGUACGAGGACCGGGUGUUGAGUCU [KL-XTryp-B9 #analogue]	193 nM	204 nM	198 nM	163 nM	435 nM
AGCGACUCUUCGGAGUCGCGGCUAAGGGAUACCAGUGAUGUUGGUCACCCUUGGCAGCCCAGAAGCCAAGCCACCAAAGGUGGCA [Omei KL Theo A Exc A v5]	104 nM	98.6 nM	111 nM	114 nM	113 nM
AGCGAGAUACUUGUCUAGUAUACUACAGAUACCAGACAAGUACUAGUCCCUUGGCAGCUGUAGAUCGAGUGAUGUUCGAGUCGCU [Theo A SS t1]	527 nM	415 nM	516 nM	430 nM	389 nM
AGCGAGUGAUGUUCGCUGAUCAUGUGAAGUUAGGAUAUAUACUUGCAUAGAAGGAACUAUUACAUGACAUUAGAGGCAGUAGUUC [FMN A SS t7b]	165 nM	173 nM	167 nM	171 nM	128 nM
AGCUAGUACGCAGGAUAUCGAACAUCAUUUAGUGAGAUCGAGUGAUGUUCGAUCACGUCUUCAGUUCGAGAAGGGCGUACUAGCA [#01 K4 FMN B Same State]	349 nM	423 nM	1090 nM	1220 nM	777 nM

Sequence	apparent KD of K4 kissing-loop reporter (input ligand: FMN 200 uM)	apparent KD of K4 kissing-loop reporter (input ligand: arginine 13.2 mM)	apparent KD of K4 kissing-loop reporter (input ligand: none)	apparent KD of K4 kissing-loop reporter [1]	apparent KD of K4 kissing-loop reporter [2]
AGCUCACACGGAAGGAGCGGAUAGAACUGACAGUUGGGCUCAAGUGAUGUUUGGGCUUGAAUCCAGGUAGGUCGCCGUGUGAGCU [Arg B SS t12]	136 nM	96.3 nM	109 nM	123 nM	123 nM
AGCUCAGAGUGACUCGAUAAGAGUCACAAACGAGGACCGGUACGGCCGCCACUCGAAAUAACGAGAGUGAUGUUCUUGCUGAGCA [FiskerMod 7 - Jieux - Same State Tryptophan A]	1320 nM	487 nM	976 nM	631 nM	386 nM
AGGCACGAGCAAGGAUAUCGAGUAGAGUGAUGUUCUGCCUGGGUUGGCGCGGAAGGGCCUUCCCAGCGAGAAGGUGCUCGUGCCU [#2 Same State - FMN A Attempt #10 (HarryS)]	293 nM	569 nM	838 nM	615 nM	786 nM
AGGCACGAGCAAGGAUAUUGAGUAGAGUGAUGUUCUGCCUGGGUUGGCUCGCAAGAGCCUUCUCAGCGAGAAGGUGCUCGUGCCU [#2 Same State - FMN A Attempt #25 (HarryS)]	286 nM	471 nM	674 nM	614 nM	594 nM
AGGCCGAGCCAAGGAUAUUGUCAGAGUGAUGUUCGCCAAUACUCCAGCCGCGCCUCAUCAGCUGAGCAAGAAGGUGGUCCUCUCA [theeternabot_exclusion_KL_FMN_B_47]	244 nM	199 nM	221 nM	207 nM	209 nM
AGGGACGAUAGCGAUACCAGAGGUCGCAAAUUCGCGCCGUUUUUUAGGAAGUGAUGUUUUCUCCCUUGGCAGCGCCCUUAGAGUU [theeternabot_exclusion_KL_Theo_B_47]	881 nM	435 nM	945 nM	795 nM	688 nM
AGGUCACCACUACAGUGAUGUUGUGGAGAGCAGGAUAUGCAGAAAUGCAGAAGGGCUCGCUCUCGGUGACCGAAUGAAACAUUCA [Omei KL FMN A SS A v7]	404 nM	670 nM	766 nM	476 nM	704 nM
AGUACAAUGGCGGCCGCCACUCAAUGGCAGAUCAAAGAUCUGUAUCACUCAGUGAUGUUGAGUGAGAGGACCGGGCCUUUGUACA [Omei KL Tryp B SS B v9]	604 nM	477 nM	500 nM	514 nM	187 nM
AGUGAUGUUGUGUUGUGUUAGGGAAGUGAUCGAGGACCGGUACGGCCGCCACUCGAGUGAUGAGUGAGUGAUGUUUGUUUAGGGA [whbob_SS_Tryp_A_m8]	926 nM	1290 nM	395 nM	3230 nM	375 nM
AGUGGACAUGUCUAGAGUGAUGUUCUGGAUACCAGACACGAAAGUGUCCCUUGGCAGCCGGAGUGAUGUUCUGGCGUUCACUAAA [Omei KL Theo A Exc B v7]	476 nM	267 nM	405 nM	414 nM	341 nM
AGUUAUGUUGCGGCCGCCACUGCGCGAGUGAUGUUCGUGGCAUAUAUAAUGUUAUAUAUGCAUCACAGGACCGGGCGGCAUAGCG [Same State - Tryptophan B]	512 nM	313 nM	375 nM	329 nM	152 nM
AGUUUAUAGGAGGAUACCAGUACGGAUAAGGUACGUUAAUAGUAGAGUGAUGUUCUAAAGUACCCUUGGCAGCUUAGAUUGAGUU [#27 K4 Theophylline B Exclusion]	110 nM	171 nM	130 nM	133 nM	101 nM
AUAACAAUCUGAAGGAGCGAGAAAGCAGUGAUGUUGCAAAGGCGAGUGAUGUUCGCAAUAACUCAGGUAGGUCGCAGAAACAAGA [Same State Arginine B]	142 nM	142 nM	187 nM	193 nM	119 nM
AUACACGUUGCGGCCGCCACUUCGAUUAGUGAUGUUAGGUGUAAGCAGGCGCUGCAUUAAUGUGAAAGGACCGGGCAGAGUAAGC [theeternabot_exclusion_KL_Trp_B_39]	203 nM	114 nM	160 nM	206 nM	148 nM
AUACGUUUAAGUGAUACCAGACAUGUGAGUGAUGUUUACAAAUAAAUUAAAUUUUUAGCUGUCCCUUGGCAGCACAGUUUAUUUA [JR_ExcTheophyB_Sub002]	516 nM	517 nM	594 nM	610 nM	430 nM
